Binding result and Kd data for 6 molecules are collected here from publication PMC6565636, “Rif1 promotes association of G-quadruplex (G4) by its specific G4 binding and oligomerization activities”.

For data set [1], the target named is T1, Rif1 full-length (His6-Rif1-FLAG3) (Schizosaccharomyces pombe (fission …, UniProt Q96UP3 1-1400)).
T1 sequence: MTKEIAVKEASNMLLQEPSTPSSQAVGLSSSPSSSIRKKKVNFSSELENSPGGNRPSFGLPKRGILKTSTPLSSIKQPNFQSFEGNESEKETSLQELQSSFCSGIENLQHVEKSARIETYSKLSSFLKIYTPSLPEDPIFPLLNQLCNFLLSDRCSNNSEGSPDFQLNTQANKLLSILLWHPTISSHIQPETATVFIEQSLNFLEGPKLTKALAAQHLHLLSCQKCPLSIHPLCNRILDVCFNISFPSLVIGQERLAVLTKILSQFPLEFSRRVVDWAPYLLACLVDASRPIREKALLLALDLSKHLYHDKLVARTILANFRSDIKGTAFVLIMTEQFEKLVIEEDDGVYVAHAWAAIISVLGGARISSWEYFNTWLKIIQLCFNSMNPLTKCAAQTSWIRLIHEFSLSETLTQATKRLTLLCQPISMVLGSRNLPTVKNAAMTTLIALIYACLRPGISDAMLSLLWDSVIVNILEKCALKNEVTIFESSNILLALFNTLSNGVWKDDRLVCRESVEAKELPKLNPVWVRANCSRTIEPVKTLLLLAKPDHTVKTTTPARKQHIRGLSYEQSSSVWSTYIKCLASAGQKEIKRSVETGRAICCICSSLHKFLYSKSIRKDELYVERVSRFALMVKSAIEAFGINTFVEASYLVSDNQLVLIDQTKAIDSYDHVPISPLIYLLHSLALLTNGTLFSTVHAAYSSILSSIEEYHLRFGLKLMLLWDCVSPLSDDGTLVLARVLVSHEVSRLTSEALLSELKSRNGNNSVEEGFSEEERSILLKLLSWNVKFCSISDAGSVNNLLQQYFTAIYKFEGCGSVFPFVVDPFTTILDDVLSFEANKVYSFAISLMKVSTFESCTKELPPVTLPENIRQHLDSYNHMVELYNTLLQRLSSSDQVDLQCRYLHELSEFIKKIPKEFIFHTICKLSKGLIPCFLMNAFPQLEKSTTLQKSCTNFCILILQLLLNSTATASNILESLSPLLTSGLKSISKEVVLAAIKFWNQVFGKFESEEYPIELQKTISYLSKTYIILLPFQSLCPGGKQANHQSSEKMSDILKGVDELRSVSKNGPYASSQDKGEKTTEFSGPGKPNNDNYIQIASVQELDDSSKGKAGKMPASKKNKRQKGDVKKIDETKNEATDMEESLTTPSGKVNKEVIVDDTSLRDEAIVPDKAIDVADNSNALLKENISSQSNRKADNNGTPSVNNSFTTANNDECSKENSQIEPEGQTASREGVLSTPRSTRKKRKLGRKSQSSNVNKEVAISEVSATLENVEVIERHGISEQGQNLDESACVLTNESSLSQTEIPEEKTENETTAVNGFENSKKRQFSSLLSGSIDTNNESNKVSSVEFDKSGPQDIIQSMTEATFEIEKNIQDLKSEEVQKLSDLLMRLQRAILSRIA
Briefly: EMSA; KCl; text: poor binder; EMSA with oligos heat-denatured and renatured in 50 mM KCl/40% PEG200 (Fig 5: 50 mM Tris-HCl pH 7.5 with KCl, NaCl or none); gel shift buffer 40 mM Hepes-KOH pH 7.6, 50 mM KCl, 1 mM EDTA, 10% glycerol, 0.01% Triton X-100; pull-down 30 min at room temperature; +++/++/+ = >50/>16/>6% shift at 1 nM Rif1. Particulars: protein: recombinant; tags: N-term His6, C-term FLAG3; label: 32P; hybrid G4.

Data set [2] concerns the target T1, Rif1 full-length (His6-Rif1-FLAG3). Briefly: EMSA; KCl; text: not bound very efficiently; EMSA with oligos heat-denatured and renatured in 50 mM KCl/40% PEG200 (Fig 5: 50 mM Tris-HCl pH 7.5 with KCl, NaCl or none); gel shift buffer 40 mM Hepes-KOH pH 7.6, 50 mM KCl, 1 mM EDTA, 10% glycerol, 0.01% Triton X-100; pull-down 30 min at room temperature; +++/++/+ = >50/>16/>6% shift at 1 nM Rif1. Particulars: protein: recombinant; tags: N-term His6, C-term FLAG3; label: 32P; hybrid G4.

For data set [3] the target is unchanged. Briefly: EMSA; KCl; three repeats most efficient; EMSA with oligos heat-denatured and renatured in 50 mM KCl/40% PEG200 (Fig 5: 50 mM Tris-HCl pH 7.5 with KCl, NaCl or none); gel shift buffer 40 mM Hepes-KOH pH 7.6, 50 mM KCl, 1 mM EDTA, 10% glycerol, 0.01% Triton X-100; pull-down 30 min at room temperature; +++/++/+ = >50/>16/>6% shift at 1 nM Rif1. Particulars: protein: recombinant; tags: N-term His6, C-term FLAG3; label: 32P.

Data set [4] has the same target. As to the kind of experiment: EMSA; EMSA with oligos heat-denatured and renatured in 50 mM KCl/40% PEG200 (Fig 5: 50 mM Tris-HCl pH 7.5 with KCl, NaCl or none); gel shift buffer 40 mM Hepes-KOH pH 7.6, 50 mM KCl, 1 mM EDTA, 10% glycerol, 0.01% Triton X-100; pull-down 30 min at room temperature; +++/++/+ = >50/>16/>6% shift at 1 nM Rif1. To be noted: protein: recombinant; tags: N-term His6, C-term FLAG3; label: 32P.

For data set [5], the target named is T2, Taz1 (Schizosaccharomyces pombe (fission …, UniProt P79005 1-663)).
T2 sequence: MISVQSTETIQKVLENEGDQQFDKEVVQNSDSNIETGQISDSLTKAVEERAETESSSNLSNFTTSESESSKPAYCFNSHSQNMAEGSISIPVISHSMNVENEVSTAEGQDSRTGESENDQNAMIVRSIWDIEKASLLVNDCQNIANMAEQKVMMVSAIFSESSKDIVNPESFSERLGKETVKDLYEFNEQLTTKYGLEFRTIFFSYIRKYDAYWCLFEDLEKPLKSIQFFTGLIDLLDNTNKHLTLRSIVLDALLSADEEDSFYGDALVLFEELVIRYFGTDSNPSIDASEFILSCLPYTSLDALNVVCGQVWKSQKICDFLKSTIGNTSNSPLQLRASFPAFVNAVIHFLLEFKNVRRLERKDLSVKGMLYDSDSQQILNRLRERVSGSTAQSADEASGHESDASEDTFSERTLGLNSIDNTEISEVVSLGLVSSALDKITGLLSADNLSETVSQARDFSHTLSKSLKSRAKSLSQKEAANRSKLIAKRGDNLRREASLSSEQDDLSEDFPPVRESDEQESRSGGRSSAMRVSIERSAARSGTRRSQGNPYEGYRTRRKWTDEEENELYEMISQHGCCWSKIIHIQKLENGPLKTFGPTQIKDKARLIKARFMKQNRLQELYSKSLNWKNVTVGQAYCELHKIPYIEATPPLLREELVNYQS
The data set is described as above. Particulars: protein: recombinant; tags: N-term His6, C-term FLAG3; chain copies: 2; label: 32P; blunt.

Turning to TAGGGTTAGGGTTAGGGTTAGGGTT (structured_DNA) [Htelo2], in data set [1], the binding result is given as “no binding”. Consider TAGGGTTAGGGTTAGGGTTAGGG (structured_DNA) [Htelo1], for which the binding result in data set [2] is reported as “no binding”.

In the case of AGTGGGGGAGTGGGGGAGTGGGGG (structured_DNA) [(AGTGGGGG)3], the binding result in data set [3] is “binds”. Turning to GGGGGGGGGG (structured_DNA) [G10], in data set [4], the binding result was “binds”. For the molecule AGTGGGGAGTGGGGAGTGGGG (structured_DNA) [(AGTGGGG)3], in data set [3], the binding result is listed as “binds”.

B1: Taz1BS (dsDNA)
DNA 1: TTACAGGTTACAGGTTACAGG
DNA 2: CCTGTAACCTGTAACCTGTAA
For the molecule B1, the dissociation constant (Kd) in data set [5] is ~30 nM.
